Laboratory results taken from publication PMC7114241.

Assays:
Experiment in all cases: FRET
[1] = target: Ac-NSTSQ-H
[2] = target: Ac-NSFSQ-H
[3] = target: Ac-ESTLQ-H

B1: SARS-CoV main protease (Mpro), P0C6X7 (protein)
chain: SGFRKMAFPSGKVEGCMVQVTCGTTTLNGLWLDDTVYCPRHVICTAEDMLNPNYEDLLIRKSNHSFLVQAGNVQLRVIGHSMQNCLLRLKVDTSNPKTPKYKFVRIQPGQTFSVLACYNGSPSGVYQCAMRPNHTIKGSFLNGSCGSVGFNIDYDCVSFCYMHHMELPTGVHAGTDLEGKFYGPFVDRQTAQAAGTDTTITLNVLAWLYAAVINGDRWFLNRFTTTLNDFNLVAMKYNYEPLTQDHVDILGPLSAQTGIAVLDMCAALKELLQNGMNGRTILGSTILEDEFTPFDVVRQCSGVTFQ
Ki [1]: 41 µM
Ki [2]: 72.7 µM
Ki [3]: 8.27 µM
